Our source for the binding result and MFI values is patent US20260250421A1 (BIOCYTOGEN PHARMACEUTICALS BEIJING, published 2026).

Test [1] deals with T1, TROP2 on NCI-H1975 and NUGC-4 tumor cells (UniProt P09758 27-323, limits assumed).
T1 construct: whole, on cells; species of the lines is not worded there; also called TROP2 on cells
T1 sequence (looked up): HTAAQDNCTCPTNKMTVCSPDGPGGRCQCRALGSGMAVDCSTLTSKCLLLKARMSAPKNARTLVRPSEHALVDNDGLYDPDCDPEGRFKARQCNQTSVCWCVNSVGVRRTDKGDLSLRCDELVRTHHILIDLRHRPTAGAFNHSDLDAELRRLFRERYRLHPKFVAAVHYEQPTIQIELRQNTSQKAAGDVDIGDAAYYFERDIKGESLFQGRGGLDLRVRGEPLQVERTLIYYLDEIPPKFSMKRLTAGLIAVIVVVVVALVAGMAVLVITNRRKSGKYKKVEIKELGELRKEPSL
Description: flow cytometry on NUGC-4 cells (only TROP2 expression), anti-hIgG-Fc Alexa Fluor 647 secondary antibody, MFI [B]. Here is the method: This experiment was performed to test the binding activities of the anti-PTK7/TROP2 bispecific antibodies to different tumor cell lines. NCI-H1975 cells or NUGC-4 cells were transferred to a 96-well plate at a density of 5×10⁴ cells/well respectively. The sample antibody was added to the 96-well plate, and incubated at 4° C. for 30 min.
In general terms: A flow cytometer gives signals particle by particle.

The target of test [2] is T2, dog PTK7 on dog cancer cell lines (dog, UniProt A0A8I3N574 31-1070).
T2 construct: whole, on cells; Endogenous protein on dog tumour cell lines; also called PTK7 on CMT-U27 and D-17 cells; dog cancer cells
T2 sequence: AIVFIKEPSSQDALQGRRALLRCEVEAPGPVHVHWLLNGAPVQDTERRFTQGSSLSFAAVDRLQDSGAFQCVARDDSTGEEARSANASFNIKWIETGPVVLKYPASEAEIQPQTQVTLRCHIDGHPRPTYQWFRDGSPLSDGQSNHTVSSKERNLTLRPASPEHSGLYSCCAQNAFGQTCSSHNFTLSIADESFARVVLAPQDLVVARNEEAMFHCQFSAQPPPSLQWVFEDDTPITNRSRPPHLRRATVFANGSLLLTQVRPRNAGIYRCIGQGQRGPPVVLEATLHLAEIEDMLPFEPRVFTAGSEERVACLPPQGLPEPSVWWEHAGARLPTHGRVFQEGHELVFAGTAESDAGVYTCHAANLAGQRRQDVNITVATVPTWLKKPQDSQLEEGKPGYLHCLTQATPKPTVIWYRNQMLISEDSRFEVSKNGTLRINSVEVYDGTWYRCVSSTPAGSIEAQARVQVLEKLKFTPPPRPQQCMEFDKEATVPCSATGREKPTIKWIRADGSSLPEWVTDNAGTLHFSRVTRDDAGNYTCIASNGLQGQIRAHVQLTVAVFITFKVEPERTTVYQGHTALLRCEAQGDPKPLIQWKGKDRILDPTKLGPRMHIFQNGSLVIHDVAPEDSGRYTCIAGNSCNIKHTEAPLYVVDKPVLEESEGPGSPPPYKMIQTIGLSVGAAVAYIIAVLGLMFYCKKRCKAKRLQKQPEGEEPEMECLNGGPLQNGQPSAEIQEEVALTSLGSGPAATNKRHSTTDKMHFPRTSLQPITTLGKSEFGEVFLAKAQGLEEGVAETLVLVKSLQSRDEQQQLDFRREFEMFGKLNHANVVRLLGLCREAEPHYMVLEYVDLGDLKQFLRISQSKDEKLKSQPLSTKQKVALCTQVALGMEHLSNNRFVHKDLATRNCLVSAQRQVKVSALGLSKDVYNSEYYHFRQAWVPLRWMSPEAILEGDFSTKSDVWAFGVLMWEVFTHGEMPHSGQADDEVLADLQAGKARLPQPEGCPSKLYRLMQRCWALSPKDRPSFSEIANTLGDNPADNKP
Put plainly: flow cytometry, CMT-U27 dog cells, Ab 5 ug/mL. Here is the method: (§1) The binding activity of anti-PTK7 antibodies to cancer cell lines was verified by flow cytometry. […] Purified anti-PTK7 antibody with a concentration of 5 μg/mL was added to each well and was incubated at 4° C. for 30 minutes. […] The cells were collected, and the mean fluorescence intensity (MFI) was determined. Human IgG1 was used as ISO control.

Test [3] deals with T2, dog PTK7 on dog cancer cell lines. Description: flow cytometry on CMT-U27 and D-17 cells. Here is the method: as §1
Test [4] shares this target. Put plainly: flow cytometry, D-17 dog cells, Ab 5 ug/mL. Here is the method: as §1
For test [5], the target named is T3, His-tagged dog PTK7 protein (dog, UniProt Q13308 31-703 (human entry)).
T3 construct: also called dPTK7-His
T3 chain: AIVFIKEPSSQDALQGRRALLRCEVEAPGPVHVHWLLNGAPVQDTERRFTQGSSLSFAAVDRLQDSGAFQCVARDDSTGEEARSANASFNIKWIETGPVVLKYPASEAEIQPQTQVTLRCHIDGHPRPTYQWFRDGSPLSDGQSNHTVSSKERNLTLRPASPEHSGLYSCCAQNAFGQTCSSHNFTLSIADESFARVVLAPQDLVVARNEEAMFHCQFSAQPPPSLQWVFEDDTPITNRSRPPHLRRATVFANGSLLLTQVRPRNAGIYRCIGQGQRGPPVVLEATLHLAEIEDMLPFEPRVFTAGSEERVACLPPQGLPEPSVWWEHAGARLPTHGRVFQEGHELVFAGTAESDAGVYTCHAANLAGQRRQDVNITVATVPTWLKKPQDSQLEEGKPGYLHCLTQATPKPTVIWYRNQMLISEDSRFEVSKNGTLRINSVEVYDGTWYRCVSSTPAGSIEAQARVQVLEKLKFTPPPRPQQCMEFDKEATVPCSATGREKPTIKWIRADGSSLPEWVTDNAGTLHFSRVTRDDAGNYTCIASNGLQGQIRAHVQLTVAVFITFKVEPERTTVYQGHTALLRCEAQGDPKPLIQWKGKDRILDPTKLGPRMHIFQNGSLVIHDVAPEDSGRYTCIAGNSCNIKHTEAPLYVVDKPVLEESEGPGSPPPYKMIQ
Description: SPR Biacore 8K, Ab on Protein A chip. Here is the method:
Purified anti-PTK7 antibodies were diluted to 1 μg/mL and then injected into the Biacore™ 8K biosensor at 10 μL/min for about 50 seconds to achieve a desired protein density (e.g., about 50 response units (RU)). The His-tagged PTK7 protein at a concentration of 200 nM or 0 nM was then injected at 30 μL/min for 180 seconds. Dissociation was monitored for 400 seconds. The chip was regenerated after the last injection of each titration with glycine (pH 2.0, 30 μL/min for 30 seconds).
On the technique in general: In SPR one partner is held on a chip, and binding of the other changes the refractive index at the surface.

B1: hu24 analog (antibody, IgG1, V domains shown)
VH: QVQLVQSGPEVKKPGASVKVSCKASGYTFTDYAVHWVRQAPGKRLEWIGVISTYNDYTYNNQDFKGRVTMTRDTSASTAYMELSRLRSEDTAVYYCARGNSYFYALDYWGQGTSVTVSS
VL: EIVLTQSPATLSLSPGERATLSCRASESVDSYGKSFMHWYQQKPGQAPRLLIYRASNLESGIPARFSGSGSGTDFTLTISSLEPEDFAVYYCQQSNEDPWTFGGGTKLEIK
notes: Humanized IgG1 monoclonal antibody targeting PTK7; also called positive control
Consider B1, for which the results for the binding result in test [1], in test [3] and in test [5] were “no binding (tested: about 20 µg/mL)”, “no binding (tested: 5 ug/mL)” and “no binding (tested: 200 nM)”, respectively. The MFI in test [2] was 1940; in test [4] it was 3690.
